“Also recorded” adds a separate entry of the source. Where no end group is shown, it is not given here. [ ]: non-standard residue; d: D form.
Tests used:
Aβ (1-40) [1] = molecular target: T1, Aβ (1-40) (Homo sapiens, UniProt P05067); test: Thioflavin T (ThT) fluorescence assay of Aβ aggregation; format: biochemical; details: 28 μM Aβ, 2.8 μM peptide
T1 construct: Aβ (1-40) was purchased from Anaspec, Inc. (Fremont, Calif.) as lyophilized powder; purchased Anaspec, Inc. (Fremont, Calif.)
Protocol: (§1) Aβ (1-40) was purchased from Anaspec, Inc. (Fremont, Calif.) as lyophilized powder. For dynamic light scattering, ThT fluorescence assay, TEM, NTA measurement and filtration/sedimentation assay, Aβ was dissolved in 50% ACN, re-lyophilized, and reconstituted in 8M urea at 12 mg/mL. Aβ stock was then aliquoted, snap-frozen in ethanol with dry ice, and stored at −80° C. For PICUP and proteolytic fragmentation analysis, lyophilized Aβ was dissolved in prechilled hexafluoroisopropanol (HFIP, Acros Organics, Geel, Belgium), aliquoted, dried and stored at −20° C. as previously described (Cho et al., 2014). Aβ sample was prepared right before use by dissolving dried peptides in 50 mM NaOH and diluting into phosphate-buffered saline (PBSA) (10 mM Na2HPO4/NaH2PO4, 150 mM NaCL and 0.02% NaN3 (pH 7.4)) to 30 μM as previously described (Cho et al., 2014).
ThT stock solutions were prepared in PBSA and filtered through 0.22 μm filter. The concentration of ThT was measured using an extinction coefficient of 26,620 M^−1 cm^−1 at 416 nm and the stock solution was diluted to 10 μM in PBSA prior to the measurement. Aβ alone (28 μM) and with peptides (2.8 μM) or mTTR (2.8 μM) were prepared in PBSA and incubated for 48 hr at 37° C. After 1, 5, 24 and 48 hr of incubation, 10 μL of each sample was mixed with 130 μL of 10 μM ThT and analyzed. ThT fluorescence emission was measured using a QuantaMaster spectrofluometer (PTI, Birmingham, N.J.), with excitation at 440 nm and emission spectra recorded from 460 to 500 nm. Three serial spectra were averaged for each sample and the background signal of ThT in PBSA was subtracted from the averaged data. Fluorescence intensity at a wavelength of 480 nm was compared.

[2] = system: primary cortical neuronal cells; test: In vitro cellular toxicity of Aβ (1-42), MTS assay; format: cell-based, mice; details: 10 μM peptide, 10 μM Aβ
Protocol: Aβ toxicity was assessed as described in detail previously (Yang et al., 2013; Cho et al., 2014). Briefly, the primary cortical neuronal cells were cultured from embryonic 15.5 day mice and were maintained in neurobasal media till they are matured. Aβ (1-42) (American Peptide, Sunnyvale, Calif.) at 1 mg/mL in PBS was diluted to 10 μM without or with peptides as previously described (Cho et al., 2014). At 6 days in vitro (DIV), the cells were treated with either Aβ alone or Aβ incubated with different doses of mTTR and peptides. Appropriate vehicle and controls were run along with the treatments. At 8 DIV, the neurons were incubated with MTS reagent (Promega) as per manufacturer protocol for 2-3 hrs and absorbance was measured at 490 nm.

[3] = Peptide self-association by PICUP cross-linking and gel electrophoresis; format: physicochemical; details: PICUP cross-linking, gel electrophoresis
Protocol: Peptides were also cross-linked by PICUP and analyzed for self-association. Twenty microliters of peptides at 36 μM in PBSA was incubated for 1 hr at 37° C. and cross-linked. Cross-linked samples were then heated at 95° C. for 5 min and separated on a 10-20% Tris-Tricine gradient gel. Peptides were visualized by silver staining (SilverStain Kit, Pierce, Rockford, Ill.).

Aβ (1-40) [4] = molecular target: T1, Aβ (1-40); test: Proteolytic fragmentation assay of Aβ with peptides (Proteinase K); format: binding; details: 3:1 molar excess of peptides, detection by 4G8
Protocol: as §1
The proteolytic fragmentation assay of Aβ with peptides was performed as previously described in detail (Cho et al., 2014). Briefly, Aβ alone (20 μM) or with peptide (60 μM) was incubated for 24 hr at 37° C. Proteinase K (Promega, Madison, Wis.) was added to the samples at a final concentration of 0.5 μg/mL and samples were dotted onto a 0.45 μm nitrocellulose membrane (Pierce) after incubation for 0, 5, 10, 20, 30, 40, 50, 60, 90 and 120 min. Membranes were then reacted with monoclonal antibodies against Aβ (6E10, Covance, against Aβ (3-8) and 4G8 against Aβ (18-22)) and visualized.

Aβ (1-40) [5] = molecular target: T1, Aβ (1-40); test: Nanoparticle tracking (NTA) of Aβ aggregates; format: biochemical; details: 28 μM Aβ, 10:1 Aβ:peptide molar ratio
Protocol: as §1
NTA measurements were taken with a Nanosight LM10 (Nanosight, Amesbury, U.K.) equipped with a 405 nm laser as previously described (Yang et al., 2013). Aβ alone (28 μM) or with CG3 (2.8 μM) were prepared in PBSA and incubated for 5 hr at 37° C. Three 60 s video were taken for each sample.

Aβ (1-40) [6] = molecular target: T1, Aβ (1-40); test: Photoinduced cross-linking (PICUP) of Aβ and peptides; format: binding
Protocol: as §1
Aβ prepared with HFIP/NaOH treatment at 30 μM as described was mixed with peptides to a final concentration of 24 μM Aβ and 2.4 μM peptides. Aβ stock was used immediately (freshly prepared) or after incubation for 24 hr at 37° C. (1 day pre-aggregated). Samples of Aβ with and without peptides were incubated for 1 hr at 37° C. and cross-linked by photo-induced cross-linking method as previously described (Cho et al., 2014). Cross-linked samples were then separated on a 10-20% Tris-Tricine gradient gel (Iinvotrogen, Carlsbad, Calif.), transferred onto a 0.2 μm poly(vinylidene difluoride) (PVDF) membrane and detected by monoclonal mouse anti-Aβ antibody 4G8 (Covance, Princeton, N.J.) as previously described (Cho et al., 2014).

Aβ (1-40) [7] = molecular target: T1, Aβ (1-40); test: Filtration/sedimentation assay of Aβ aggregation; format: biochemical
Protocol: as §1
Aβ alone (30 μM) or with CG3 (3 μM) was prepared in PBSA and incubated for 24 hr at 37° C. For filtration, 175 μL of sample was filtered through 0.45 μm filter. For sedimentation, 100 μL of sample was transferred onto a separate tube and centrifuged for 30 min at 19,500 ref. The supernatant (80%) was removed. Concentrations of untreated, filtered, and centrifuged samples were measured by BCA assay (Pierce).

Aβ = molecular target: T2, Aβ (Homo sapiens, UniProt P05067); test: Enzyme-linked immunoassay of Aβ binding to immobilized CG3-biotin in presence of serum proteins; details: Aβ 1, 3 or 5 μg/mL in PBS with 10% or 30% FBS
T2 construct: Amyloid-beta (Aβ or Abeta) denotes peptides of 36-43 amino acids
From the text: Evidence of interaction between Aβ and peptide investigated by enzyme-linked immunoassay. CG3 was synthesized with an appending polyethylene glycol (PEG) linker attached to biotin. This was achieved by replacing Val at the 3rd position with Glu and on-column addition of PEG and biotin to the Glu side chain. […] After further washing, Aβ was detected using monoclonal anti-Aβ antibody and Superclonal-HRP. […] Open symbols/dashed lines are negative control (immobilized PEG-biotin linker).
Briefly, CG3 was synthesized with an appended flexible PEG linker and biotin. […] Aβ was prepared at 1, 3, or 5 μg/mL in PBS, or in PBS containing 10 (vol/vol) % or 30 (vol/vol) % fetal bovine serum (FBS, charcoal-treated). […] Aβ solutions were added to the CG3-coated wells and then incubated to allow binding. After washing, Aβ was detected by anti-Aβ antibody (6E10 or 4G8) and Superclonal-HRP.

Q: For “SKVVT^DPPRYTIAALLSPYSYSQ [CG3] (chain 1 SKVVT[dP]PRYTIAALLSPYSYSQ; chain 2 SKVVT[dP]PRYTIAALLSPYSYSQ; also: head-to-tail to a chain's N/C-terminus) [cyclic 22-mer of TTR residues 104-123 grafted onto DPro-Pro template]”, which “ThT fluorescence intensity of Aβ with peptide” value (Aβ (1-40) [1]; after 5 hr) is on record?
A: Its value is “remained low”.

Q: And the “ThT fluorescence intensity of Aβ with peptide” value (Aβ (1-40) [1]; after 24 hr)?
A: Its value is “fluorescence still remained low”.

Q: And the “protection against Aβ toxicity” value [2]?
A: Its value is “significant protection”.

Q: What about the “self-association by PICUP” value [3] of the same substance?
A: The value was “a fraction of CG3 forms a SDS-stable dimer”.

Q: And the “effect on Aβ degradation by protease” value (Aβ (1-40) [4])?
A: Its value is “Aβ degradation was delayed; also recorded: most effective in inhibiting degradation”.

Q: What about the “size of particles detected” value (Aβ (1-40) [5]) of the same substance?
A: Its value is “very large (microns)”.

Q: And the “interaction with freshly prepared versus pre-aggregated Aβ” value (Aβ (1-40) [6]; freshly prepared or 1 day pre-aggregated Aβ)?
A: The value was “much less interaction with freshly prepared Aβ than with pre-aggregated Aβ”.

Q: What about the “interaction with Aβ (shift in cross-linked Aβ size distribution)” value (Aβ (1-40) [6]; pre-aggregated Aβ, 10:1 molar excess of Aβ, Western blot 4G8) of the same substance?
A: Its value is “interact with Aβ”.

Q: And the “effect on fraction of Aβ aggregates removable by filtration or sedimentation” value (Aβ (1-40) [7])?
A: Its value is “reduce the fraction of Aβ aggregates that can be removed by filtration or sedimentation”.

Q: What about the “fraction of Aβ-peptide mixture filterable through 0.45 μm filter” value (Aβ (1-40) [7]; 30 μM Aβ, 10:1 Aβ excess, at either 0 or 24 hours, 37° C.) of the same substance?
A: The value was “about 90%”.

Q: And the “fraction of Aβ-peptide mixture remaining in solution after centrifugation” value (Aβ (1-40) [7]; after 24 hours, centrifuged 30 min, supernatant)?
A: The value was 91%.

Q: And the “binding of Aβ to immobilized peptide” value (Aβ)?
A: Its value is “serum proteins do not interfere with Aβ binding”.

From patent US9809627B2, “Cyclized transthyretin peptide and methods of use therefor” (Wisconsin Alumni Research Foundation, priority 2014, dated 2017)
